Assays:
ASH2L, Q9UBL3-3 [1] = molecular target: ASH2L, Q9UBL3-3
ASH2L, Q9UBL3-3 [2] = molecular target: ASH2L, Q9UBL3-3; remark: listed apart in the source

Sequence of ASH2L, Q9UBL3-3 (Q9UBL3 95-628): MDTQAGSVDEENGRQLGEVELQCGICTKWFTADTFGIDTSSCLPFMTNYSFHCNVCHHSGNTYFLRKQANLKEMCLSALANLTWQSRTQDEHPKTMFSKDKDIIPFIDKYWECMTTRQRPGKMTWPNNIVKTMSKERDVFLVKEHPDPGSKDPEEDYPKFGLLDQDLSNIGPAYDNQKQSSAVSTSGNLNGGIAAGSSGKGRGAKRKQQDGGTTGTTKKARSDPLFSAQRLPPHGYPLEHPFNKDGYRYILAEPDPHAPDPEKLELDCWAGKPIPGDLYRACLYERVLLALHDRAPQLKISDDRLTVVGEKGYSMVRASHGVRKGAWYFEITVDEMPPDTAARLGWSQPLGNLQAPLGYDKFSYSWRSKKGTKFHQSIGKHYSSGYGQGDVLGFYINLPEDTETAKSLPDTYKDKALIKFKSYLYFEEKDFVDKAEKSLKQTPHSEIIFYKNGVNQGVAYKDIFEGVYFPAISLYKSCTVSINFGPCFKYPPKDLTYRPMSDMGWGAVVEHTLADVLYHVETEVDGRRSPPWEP

Substance: Histone-lysine N-methyltransferase 2B (Homo sapiens), Q9UMN6 R2610A
- effect of a mutation on the interaction (ASH2L, Q9UBL3-3 [1]): disrupting interaction strength

Substance: Histone-lysine N-methyltransferase 2C (Homo sapiens), Q8NEZ4 R4806A
- effect of a mutation on the interaction (ASH2L, Q9UBL3-3 [2]): disrupting interaction strength

From IntAct's records for PubMed 26886794
